Substitutions are numbered along the chain they refer to.
T1: RADIL, Q96JH8
T1 sequence (Q96JH8 971-1071, limits assumed, looked up): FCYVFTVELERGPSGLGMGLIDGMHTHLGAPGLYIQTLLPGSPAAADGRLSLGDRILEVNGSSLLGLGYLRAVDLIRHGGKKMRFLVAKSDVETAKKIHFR

T2: SNTG2, Q9NY99
T2 sequence (Q9NY99 68-166, limits assumed, looked up): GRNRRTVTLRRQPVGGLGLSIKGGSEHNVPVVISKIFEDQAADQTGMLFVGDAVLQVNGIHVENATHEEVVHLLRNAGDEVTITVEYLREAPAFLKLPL

T3: MPP2, Q14168
T3 sequence (Q14168 180-250, limits assumed, looked up): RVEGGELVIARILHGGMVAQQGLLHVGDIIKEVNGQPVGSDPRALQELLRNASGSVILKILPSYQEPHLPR

T4: PARD3B_1, Q8TEW8
T4 sequence (Q8TEW8 196-299, limits assumed, looked up): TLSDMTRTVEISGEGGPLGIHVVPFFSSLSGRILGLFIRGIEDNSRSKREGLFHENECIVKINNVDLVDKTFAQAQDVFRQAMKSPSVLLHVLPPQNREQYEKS

T5: SNTA1, Q13424
T5 sequence (Q13424 82-180, limits assumed, looked up): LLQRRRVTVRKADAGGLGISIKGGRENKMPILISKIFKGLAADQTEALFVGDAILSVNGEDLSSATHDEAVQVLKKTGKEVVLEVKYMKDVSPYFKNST

T6: ARHGAP21, Q5T5U3
T6 sequence (Q5T5U3 45-169, limits assumed, looked up): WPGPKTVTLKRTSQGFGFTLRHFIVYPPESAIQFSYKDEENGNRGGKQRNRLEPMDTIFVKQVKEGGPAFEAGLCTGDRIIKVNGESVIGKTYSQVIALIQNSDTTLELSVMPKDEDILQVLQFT

T7: DLG3_2, Q92796
T7 sequence (Q92796 221-321, limits assumed, looked up): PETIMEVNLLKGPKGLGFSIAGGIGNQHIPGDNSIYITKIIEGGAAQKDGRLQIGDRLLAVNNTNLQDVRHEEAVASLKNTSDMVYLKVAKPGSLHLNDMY

T8: APBA1_2, Q02410
T8 sequence (Q02410 742-832, limits assumed, looked up): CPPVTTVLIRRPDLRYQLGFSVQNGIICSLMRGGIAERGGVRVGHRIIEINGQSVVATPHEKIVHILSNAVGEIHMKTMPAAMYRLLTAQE

T9: MPP6, Q9NZW5
T9 sequence (Q9NZW5 125-219, limits assumed, looked up): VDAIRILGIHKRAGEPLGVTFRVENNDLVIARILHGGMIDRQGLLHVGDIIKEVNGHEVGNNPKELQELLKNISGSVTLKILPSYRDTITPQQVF

T10: FRMPD1, Q5SYB0
T10 sequence (Q5SYB0 52-145, limits assumed, looked up): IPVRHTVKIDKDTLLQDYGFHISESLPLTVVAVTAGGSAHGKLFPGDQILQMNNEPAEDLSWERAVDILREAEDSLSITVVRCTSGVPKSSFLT

T11: APBA2_2, Q99767
T11 sequence (Q99767 654-744, limits assumed, looked up): T8 sequence (Q02410 742-832, limits assumed, looked up) with R10K, R15K, P59A, H65Q, I66A, A70S, Y84F, A89G

T12: SIPA1L2, Q9P2F8
T12 sequence (Q9P2F8 945-1036, limits assumed, looked up): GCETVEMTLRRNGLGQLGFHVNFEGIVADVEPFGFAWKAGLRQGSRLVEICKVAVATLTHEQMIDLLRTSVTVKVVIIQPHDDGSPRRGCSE

B1: HPV67-E6, A4U7F2 (peptide)
chain: SRPQRTQTQV
B2: LRP4, O75096 (peptide)
chain: ERKLSSESQV

biological target: T1, RADIL, Q96JH8; test: holdup assay; design: key: below the threshold = too weak to quantify, mostly under pKd 3.1 to 4; conditions: plain residues with an end cap or a label only (N-terminal biotin on a linker: ttds)

Binder | pKd
B1 | below the threshold
B2 | below the threshold

biological target: HTRA1, Q92743; test: holdup assay; design: key: below the threshold = too weak to quantify, mostly under pKd 3.1 to 4; conditions: plain residues with an end cap or a label only (N-terminal biotin on a linker: ttds)
Sequence (Q92743 360-477): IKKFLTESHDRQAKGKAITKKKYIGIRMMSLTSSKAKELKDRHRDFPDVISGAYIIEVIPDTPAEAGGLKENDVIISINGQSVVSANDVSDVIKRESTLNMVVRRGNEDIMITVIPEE

Binder | pKd
B1 | below the threshold
B2 | below the threshold

biological target: DLG5_1, Q8TDM6; test: holdup assay; design: key: below the threshold = too weak to quantify, mostly under pKd 3.1 to 4; conditions: plain residues with an end cap or a label only (N-terminal biotin on a linker: ttds)
Sequence (Q8TDM6 617-713): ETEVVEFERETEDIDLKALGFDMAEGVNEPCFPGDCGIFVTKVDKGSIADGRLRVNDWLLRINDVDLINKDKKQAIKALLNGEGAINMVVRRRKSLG

Binder | pKd
B1 | below the threshold
B2 | below the threshold

biological target: T2, SNTG2, Q9NY99; test: holdup assay; design: key: below the threshold = too weak to quantify, mostly under pKd 3.1 to 4; conditions: plain residues with an end cap or a label only (N-terminal biotin on a linker: ttds)

Binder | pKd
B1 | 3.98
B2 | 4.1

biological target: T3, MPP2, Q14168; test: holdup assay; design: key: below the threshold = too weak to quantify, mostly under pKd 3.1 to 4; conditions: plain residues with an end cap or a label only (N-terminal biotin on a linker: ttds)

Binder | pKd
B1 | below the threshold
B2 | below the threshold

biological target: T4, PARD3B_1, Q8TEW8; test: holdup assay; design: key: below the threshold = too weak to quantify, mostly under pKd 3.1 to 4; conditions: plain residues with an end cap or a label only (N-terminal biotin on a linker: ttds)

Binder | pKd
B1 | below the threshold
B2 | below the threshold

biological target: Inadl_9, Q8NI35; test: holdup assay; design: key: below the threshold = too weak to quantify, mostly under pKd 3.1 to 4; conditions: plain residues with an end cap or a label only (N-terminal biotin on a linker: ttds)
Sequence (Q8NI35 1530-1615): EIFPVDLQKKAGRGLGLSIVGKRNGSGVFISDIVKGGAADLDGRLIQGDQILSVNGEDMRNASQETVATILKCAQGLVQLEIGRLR

Binder | pKd
B1 | below the threshold
B2 | below the threshold

biological target: DLG4_3, P78352; test: holdup assay; design: key: below the threshold = too weak to quantify, mostly under pKd 3.1 to 4; conditions: plain residues with an end cap or a label only (N-terminal biotin on a linker: ttds)
Sequence (P78352 306-403): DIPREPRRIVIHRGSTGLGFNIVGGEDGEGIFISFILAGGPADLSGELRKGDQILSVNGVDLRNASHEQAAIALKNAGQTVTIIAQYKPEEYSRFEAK

Binder | pKd
B1 | 4.23
B2 | below the threshold

biological target: T5, SNTA1, Q13424; test: holdup assay; design: key: below the threshold = too weak to quantify, mostly under pKd 3.1 to 4; conditions: plain residues with an end cap or a label only (N-terminal biotin on a linker: ttds)

Binder | pKd
B1 | 3.94
B2 | 3.78

biological target: T6, ARHGAP21, Q5T5U3; test: holdup assay; design: key: below the threshold = too weak to quantify, mostly under pKd 3.1 to 4; conditions: plain residues with an end cap or a label only (N-terminal biotin on a linker: ttds)

Binder | pKd
B1 | below the threshold
B2 | below the threshold

biological target: FRMPD3, Q5JV73; test: holdup assay; design: key: below the threshold = too weak to quantify, mostly under pKd 3.1 to 4; conditions: plain residues with an end cap or a label only (N-terminal biotin on a linker: ttds)
Sequence (Q5JV73 12-100): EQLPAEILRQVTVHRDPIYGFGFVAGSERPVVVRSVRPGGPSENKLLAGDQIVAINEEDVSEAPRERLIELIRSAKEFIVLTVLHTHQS

Binder | pKd
B1 | below the threshold
B2 | below the threshold

biological target: DLG2_2, Q15700; test: holdup assay; design: key: below the threshold = too weak to quantify, mostly under pKd 3.1 to 4; conditions: plain residues with an end cap or a label only (N-terminal biotin on a linker: ttds)

Binder | pKd
B1 | 4.81
B2 | 4.38

biological target: MAGI2_5, Q86UL8; test: holdup assay; design: key: below the threshold = too weak to quantify, mostly under pKd 3.1 to 4; conditions: plain residues with an end cap or a label only (N-terminal biotin on a linker: ttds)
Sequence (Q86UL8 915-1017): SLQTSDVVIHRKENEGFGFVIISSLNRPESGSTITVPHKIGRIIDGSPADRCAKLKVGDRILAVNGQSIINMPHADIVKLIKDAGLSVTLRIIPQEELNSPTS

Binder | pKd
B1 | 3.94
B2 | 4.08

biological target: GRIP2_5, Q9C0E4; test: holdup assay; design: key: below the threshold = too weak to quantify, mostly under pKd 3.1 to 4; conditions: plain residues with an end cap or a label only (N-terminal biotin on a linker: ttds)
Sequence (Q9C0E4 544-642): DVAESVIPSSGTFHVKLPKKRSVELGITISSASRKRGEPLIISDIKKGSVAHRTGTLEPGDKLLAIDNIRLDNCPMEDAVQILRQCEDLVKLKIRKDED

Binder | pKd
B1 | below the threshold
B2 | below the threshold

biological target: T7, DLG3_2, Q92796; test: holdup assay; design: key: below the threshold = too weak to quantify, mostly under pKd 3.1 to 4; conditions: plain residues with an end cap or a label only (N-terminal biotin on a linker: ttds)

Binder | pKd
B1 | 5.06
B2 | 4.6

biological target: T8, APBA1_2, Q02410; test: holdup assay; design: key: below the threshold = too weak to quantify, mostly under pKd 3.1 to 4; conditions: plain residues with an end cap or a label only (N-terminal biotin on a linker: ttds)

Binder | pKd
B1 | 3.54
B2 | below the threshold

biological target: DLG2_3, Q15700; test: holdup assay; design: key: below the threshold = too weak to quantify, mostly under pKd 3.1 to 4; conditions: plain residues with an end cap or a label only (N-terminal biotin on a linker: ttds)

Binder | pKd
B1 | 4.52
B2 | 4.11

biological target: T9, MPP6, Q9NZW5; test: holdup assay; design: key: below the threshold = too weak to quantify, mostly under pKd 3.1 to 4; conditions: plain residues with an end cap or a label only (N-terminal biotin on a linker: ttds)

Binder | pKd
B1 | below the threshold
B2 | below the threshold

biological target: T10, FRMPD1, Q5SYB0; test: holdup assay; design: key: below the threshold = too weak to quantify, mostly under pKd 3.1 to 4; conditions: plain residues with an end cap or a label only (N-terminal biotin on a linker: ttds)

Binder | pKd
B1 | below the threshold
B2 | below the threshold

biological target: IL16_3, Q14005; test: holdup assay; design: key: below the threshold = too weak to quantify, mostly under pKd 3.1 to 4; conditions: plain residues with an end cap or a label only (N-terminal biotin on a linker: ttds)
Sequence (Q14005 1107-1207): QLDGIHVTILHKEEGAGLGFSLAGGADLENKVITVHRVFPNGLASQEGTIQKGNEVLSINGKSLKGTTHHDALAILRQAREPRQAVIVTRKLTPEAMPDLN

Binder | pKd
B1 | below the threshold
B2 | below the threshold

biological target: T11, APBA2_2, Q99767; test: holdup assay; design: key: below the threshold = too weak to quantify, mostly under pKd 3.1 to 4; conditions: plain residues with an end cap or a label only (N-terminal biotin on a linker: ttds)

Binder | pKd
B1 | below the threshold
B2 | below the threshold

biological target: PDLIM1, O00151; test: holdup assay; design: key: below the threshold = too weak to quantify, mostly under pKd 3.1 to 4; conditions: plain residues with an end cap or a label only (N-terminal biotin on a linker: ttds)
Sequence (O00151 1-87): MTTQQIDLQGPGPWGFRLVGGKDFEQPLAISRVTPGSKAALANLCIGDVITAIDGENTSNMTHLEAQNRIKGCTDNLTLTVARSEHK

Binder | pKd
B1 | below the threshold
B2 | below the threshold

biological target: PICK1, Q9NRD5; test: holdup assay; design: key: below the threshold = too weak to quantify, mostly under pKd 3.1 to 4; conditions: plain residues with an end cap or a label only (N-terminal biotin on a linker: ttds)
Sequence (Q9NRD5 17-115): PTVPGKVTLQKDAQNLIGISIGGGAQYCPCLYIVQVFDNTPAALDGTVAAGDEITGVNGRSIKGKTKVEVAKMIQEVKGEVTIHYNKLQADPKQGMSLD

Binder | pKd
B1 | below the threshold
B2 | below the threshold

biological target: T12, SIPA1L2, Q9P2F8; test: holdup assay; design: key: below the threshold = too weak to quantify, mostly under pKd 3.1 to 4; conditions: plain residues with an end cap or a label only (N-terminal biotin on a linker: ttds)

Binder | pKd
B1 | below the threshold
B2 | below the threshold

biological target: FRMPD2_2, Q68DX3; test: holdup assay; design: key: below the threshold = too weak to quantify, mostly under pKd 3.1 to 4; conditions: plain residues with an end cap or a label only (N-terminal biotin on a linker: ttds)
Sequence (Q68DX3 944-1038): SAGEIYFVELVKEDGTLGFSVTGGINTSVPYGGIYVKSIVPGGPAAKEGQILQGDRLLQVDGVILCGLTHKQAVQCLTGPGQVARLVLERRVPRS

Binder | pKd
B1 | 3.53
B2 | 3.48

biological target: LIMK2, P53671; test: holdup assay; design: key: below the threshold = too weak to quantify, mostly under pKd 3.1 to 4; conditions: plain residues with an end cap or a label only (N-terminal biotin on a linker: ttds)
Sequence (P53671 143-248): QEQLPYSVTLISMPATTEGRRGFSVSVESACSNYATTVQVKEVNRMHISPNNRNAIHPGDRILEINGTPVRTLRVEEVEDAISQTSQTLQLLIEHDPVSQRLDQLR

Binder | pKd
B1 | below the threshold
B2 | below the threshold

Reference: publication PMC9482650, “Quantitative fragmentomics allow affinity mapping of interactomes” (Nature Communications, 2022)
